Source: IntAct's records for PubMed 24449766

B1: E3 ubiquitin-protein ligase MARCHF6 (Homo sapiens), O60337 (parent)
chain: MDTAEEDICRVCRSEGTPEKPLYHPCVCTGSIKFIHQECLVQWLKHSRKEYCELCKHRFAFTPIYSPDMPSRLPIQDIFAGLVTSIGTAIRYWFHYTLVAFAWLGVVPLTACRIYKCLFTGSVSSLLTLPLDMLSTENLLADCLQGCFVVTCTLCAFISLVWLREQIVHGGAPIWLEHAAPPFNAAGHHQNEAPAGGNGAENVAADQPANPPAENAVVGENPDAQDDQAEEEEEDNEEEDDAGVEDAADANNGAQDDMNWNALEWDRAAEELTWERMLGLDGSLVFLEHVFWVVSLNTLFILVFAFCPYHIGHFSLVGLGFEEHVQASHFEGLITTIVGYILLAITLIICHGLATLVKFHRSRRLLGVCYIVVKVSLLVVVEIGVFPLICGWWLDICSLEMFDATLKDRELSFQSAPGTTMFLHWLVGMVYVFYFASFILLLREVLRPGVLWFLRNLNDPDFNPVQEMIHLPIYRHLRRFILSVIVFGSIVLLMLWLPIRIIKSVLPNFLPYNVMLYSDAPVSELSLELLLLQVVLPALLEQGHTRQWLKGLVRAWTVTAGYLLDLHSYLLGDQEENENSANQQVNNNQHARNNNAIPVVGEGLHAAHQAILQQGGPVGFQPYRRPLNFPLRIFLLIVFMCITLLIASLICLTLPVFAGRWLMSFWTGTAKIHELYTAACGLYVCWLTIRAVTVMVAWMPQGRRVIFQKVKEWSLMIMKTLIVAVLLAGVVPLLLGLLFELVIVAPLRVPLDQTPLFYPWQDWALGVLHAKIIAAITLMGPQWWLKTVIEQVYANGIRNIDLHYIVRKLAAPVISVLLLSLCVPYVIASGVVPLLGVTAEMQNLVHRRIYPFLLMVVVLMAILSFQVRQFKRLYEHIKNDKYLVGQRLVNYERKSGKQGSSPPPPQSSQE

Variants of: B1
Conditions: with erg1_human SQLE

Variant | effect of a mutation on the interaction
C9A | increasing interaction
